Test results as given in patent US20260008817A1, “CYCLIC PEPTIDE OR SALT THEREOF, AND USES THEREOF” (FUJIFILM Corporation, priority 2023, published 2026).
Positions of bridges follow the written chain, without caps; N, C: chain ends. Non-standard residues stand in square brackets, D forms with d. No end group written: not given here. COCH2 = acetyl group that carries the bridge; NMeL = CN[C@@H](CC(C)C)C(=O)O; hLeu = CC(C)CC[C@H](N)C(=O)O; hCys = N[C@@H](CCS)C(=O)O; Orn = NCCC[C@H](N)C(=O)O; Dab = NCC[C@H](N)C(=O)O; Dap = NC[C@H](N)C(=O)O

Experiments:
[1] = target: T1, Recombinant Human FGFR1 alpha (IIIc) Fc Chimera Protein (Homo sapiens, UniProt P11362); assay: SPR binding affinity of chemically synthesized cyclic peptide to immobilized FGFR; settings: SPR binding amount at 10 nmol/L cyclic peptide, 25° C.; chemically synthesized product
T1 construct: purchased R&D systems 658-FR-050
T1 sequence (P11362 with tags, fused parts or gaps limits assumed): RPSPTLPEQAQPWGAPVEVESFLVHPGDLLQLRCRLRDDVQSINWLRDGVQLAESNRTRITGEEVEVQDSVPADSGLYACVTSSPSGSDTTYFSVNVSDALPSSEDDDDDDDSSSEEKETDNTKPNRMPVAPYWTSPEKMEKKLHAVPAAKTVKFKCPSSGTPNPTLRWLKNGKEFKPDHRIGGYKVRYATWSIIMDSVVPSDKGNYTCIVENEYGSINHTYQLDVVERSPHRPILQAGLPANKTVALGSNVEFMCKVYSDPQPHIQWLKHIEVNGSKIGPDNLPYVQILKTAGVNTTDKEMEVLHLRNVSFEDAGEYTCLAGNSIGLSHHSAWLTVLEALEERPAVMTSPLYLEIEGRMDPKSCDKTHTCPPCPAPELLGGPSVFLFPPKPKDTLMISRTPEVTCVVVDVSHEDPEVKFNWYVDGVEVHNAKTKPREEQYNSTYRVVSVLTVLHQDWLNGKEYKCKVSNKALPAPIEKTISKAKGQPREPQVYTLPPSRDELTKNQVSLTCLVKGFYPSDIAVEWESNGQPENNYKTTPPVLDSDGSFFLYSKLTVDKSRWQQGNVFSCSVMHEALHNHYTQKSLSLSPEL
Procedure: The binding affinity of the cyclic peptide to FGFR was evaluated using a surface plasmon resonance (SPR) method.
The binding affinity of the chemically synthesized cyclic peptide to FGFR was evaluated by the following procedure.
A CM5 sensor chip (Cytiva, 29149603) was set in Biacore-T200 (manufactured by Cytiva) which is a surface plasmon resonance device, and an HBS-EP buffer (Cytiva, BR100826) was added as a running buffer at a flow rate of 10 μL/min to equilibrate the flow channel. Next, 70 μL of a mixed aqueous solution of 0.2 mol/L 1-(3-dimethylaminopropyl)-3-ethylcarbodiimide (EDC) and 0.05 mol/L N-hydroxysuccinimide (NHS) was added to activate the sensor chip. Then, Recombinant Human FGFR1 alpha (IIIc) Fc Chimera Protein CF (R&D systems, 658-FR-050) prepared at 50 nmol/L in an Acetate 4.5 buffer (Cytiva, BR100350) was added thereto to perform immobilization at about 5000 RU. Thereafter, the blocking treatment was performed with an ethanolamine solution. In addition, in another flow channel of the same sensor chip, blocking treatment was performed immediately after activation without immobilizing FGFR.
A cyclic peptide diluted to 10 nmol/L using HBS-EP was added to each flow channel of the FGFR-immobilized sensor chip produced above at 25° C. for 10 minutes, then HBS-EP was allowed to flow as a running buffer for 30 minutes, and the binding of the cyclic peptide to FGFR was measured. Thereafter, a regeneration treatment of removing the bound cyclic peptide was performed by repeating the flow of a regeneration liquid in which sodium chloride powder was dissolved in Glysine 1.5 (Cytiva, BR100354) to a final concentration of 0.15 mol/L for 1 minute in each flow channel twice. The binding amount of the cyclic peptide was evaluated from the difference between the measured value of Biacore-T200 in the flow channel in which FGFR was immobilized and the measured value of Biacore-T200 in the flow channel in which FGFR was not immobilised, in a case where a 10 nmol/L cyclic peptide was allowed to flow.
The binding amount of the cyclic peptide evaluated above was normalized to the binding amount of the cyclic peptide molecules per one molecule of FGFR using the molecular weights of the cyclic peptide and FGFR, and the binding affinity to FGFR was evaluated according to the following evaluation criteria. The evaluation result preferably satisfies the evaluation criteria A, B, or C.
• A: The binding amount is 0.7 molecules of the cyclic peptide/one molecule of FGFR or more. • B: The binding amount is 0.5 molecules of the cyclic peptide/one molecule of FGFR or more and less than 0.7 molecules of cyclic peptide/one molecule of FGFR. • C: The binding amount is 0.1 molecules of cyclic peptide/one molecule of FGFR or more and less than 0.5 molecules of cyclic peptide/one molecule of FGFR. • D: The binding amount is less than 0.1 molecules of the cyclic peptide/one molecule of FGFR.

[2] = Reductive stability of cyclic peptide (DTT treatment, LC); type: physicochemical; settings: residual rate after DTT treatment, room temperature, 1 hour
Procedure: The molecular stability of the cyclic peptide was evaluated by analyzing an aqueous solution of the cyclic peptide treated with a reducing agent by liquid chromatography (LC).
The reducing agent treatment was performed under the following conditions based on the concentration of glutathione contained in the cells. 25 μL of a 0.2 mg/mL cyclic peptide aqueous solution was prepared, 58.8 μL of a 12.6 mmol/L DTT aqueous solution was added to the aqueous solution, and the mixture was incubated at room temperature for 1 hour to obtain an aqueous solution of the cyclic peptide treated with a reducing agent. The DTT aqueous solution was used by diluting a 1 mol/L (+−)-dithiothreitol (DTT) solution (FUJIFILM Wako Pure Chemical Corporation, 044-33871) with water. The total area of all the peaks in LC/MS of the cyclic peptide before the reducing agent treatment was set to 100%, and the proportion of the total area of all the peaks in LC/MS of the aqueous solution of the cyclic peptide treated with the reducing agent was determined to calculate the residual rate of the cyclic peptide, and the molecular stability was evaluated according to the following evaluation criteria. The evaluation result preferably satisfies the evaluation criteria A, B, or C.
• A: The residual rate of cyclic peptide is 90% or more. • B: The residual rate of the cyclic peptide is 70% or more and less than 90% • C: The residual rate of the cyclic peptide is 50% or more and less than 70% • D: The residual rate of the cyclic peptide is less than 50%
The LC used for the evaluation of molecular stability was set to the following conditions. • LC device: Prominence series (pump, column oven, autosampler, detector) (manufactured by Shimadzu Corporation) • Detector: photodiode array detector (SPD-M20A), measurement wavelength of 280 nm • Column: TSKgel ODS-100V, inner diameter of 4.6 mm×length of 150 mm, particle diameter of 5 μm (manufactured by Tosoh Corporation) • Eluent A: solution containing 0.1% trifluoroacetic acid as solute, and solvent is 100% water • Eluent B: solution containing 0.1% trifluoroacetic acid as solute, and solvent is 100% acetonitrile • Flow rate: 1.0 mL/min • Injection amount: 25 μL • Gradient: 20% to 50%: Eluent B (0 to 15 minutes), 100%: Eluent B (15 minutes) • Column temperature: 40° C.

| Substance | Evaluation result of binding affinity to FGFR [1] | Evaluation result of reductive stability [2] |
| --- | --- | --- |
| 327 (A[hCys]VWTFDRHAQEISQALHK(COCH2)VKKK; thioether 2-19) [compound 327] | A (The binding amount is 0.7 molecules of the cyclic peptide/one molecule of FGFR or more.) | A (The residual rate of cyclic peptide is 90% or more.) |
| 328 (A[hCys]VWTFDRHAQEISQALH[Orn](COCH2)VKKK; thioether 2-19) [compound 328] | A (The binding amount is 0.7 molecules of the cyclic peptide/one molecule of FGFR or more.) | A (The residual rate of cyclic peptide is 90% or more.) |
| 329 (A[hCys]VWTFDRHAQEISQALH[Dab](COCH2)VKKK; thioether 2-19) [compound 329] | B (The binding amount is 0.5 molecules of the cyclic peptide/one molecule of FGFR or more and less than 0.7 molecules of cyclic peptide/one molecule of FGFR.) | A (The residual rate of cyclic peptide is 90% or more.) |
| 330 (A[hCys]VWTFDRHAQEISQALH[Dap](COCH2)VKKK; thioether 2-19) [compound 330] | A (The binding amount is 0.7 molecules of the cyclic peptide/one molecule of FGFR or more.) | A (The residual rate of cyclic peptide is 90% or more.) |
| 331 (AK(COCH2)VWTFDRHAQEISQALH[hCys]VKKK; thioether 2-19) [compound 331] | B (The binding amount is 0.5 molecules of the cyclic peptide/one molecule of FGFR or more and less than 0.7 molecules of cyclic peptide/one molecule of FGFR.) | A (The residual rate of cyclic peptide is 90% or more.) |
| 332 (AXVWTFDRHAQEISQALHXVKKK; not fully specified; Description of Artificial Sequence: Cyclic peptide) [compound 332] | A (The binding amount is 0.7 molecules of the cyclic peptide/one molecule of FGFR or more.) | A (The residual rate of cyclic peptide is 90% or more.) |
| 333 (AXVWTFDRHAQEISQALHXVKKK; not fully specified; Description of Artificial Sequence: Cyclic peptide) [compound 333] | A (The binding amount is 0.7 molecules of the cyclic peptide/one molecule of FGFR or more.) | A (The residual rate of cyclic peptide is 90% or more.) |
| 334 (AXVWTFDRHAQEISQALHXVKKK; Description of Artificial Sequence: Cyclic peptide) [compound 334] | A (The binding amount is 0.7 molecules of the cyclic peptide/one molecule of FGFR or more.) | A (The residual rate of cyclic peptide is 90% or more.) |
| 336 (ACVWTFDRHAQEISQALHCVKKK; disulfide 2-19 (inferred)) [compound 336] | D (The binding amount is less than 0.1 molecules of the cyclic peptide/one molecule of FGFR.) | D (The residual rate of the cyclic peptide is less than 50%) |
| 337 (F[Orn](COCH2)VYTFDAHAHSLDAALN[hCys]IKKK; thioether 2-19) [compound 337] | C (The binding amount is 0.1 molecules of cyclic peptide/one molecule of FGFR or more and less than 0.5 molecules of cyclic peptide/one molecule of FGFR.) | B (The residual rate of the cyclic peptide is 70% or more and less than 90%) |
| 338 (FXVYTFDAHAHSLDAALNXIKKK; Description of Artificial Sequence: Cyclic peptide) [compound 338] | C (The binding amount is 0.1 molecules of cyclic peptide/one molecule of FGFR or more and less than 0.5 molecules of cyclic peptide/one molecule of FGFR.) | A (The residual rate of cyclic peptide is 90% or more.) |
| 339 (F[Orn](COCH2)VYTFDAHAHS[NMeL]DAALN[hCys]IKKK; thioether 2-19) [compound 339] | C (The binding amount is 0.1 molecules of cyclic peptide/one molecule of FGFR or more and less than 0.5 molecules of cyclic peptide/one molecule of FGFR.) | B (The residual rate of the cyclic peptide is 70% or more and less than 90%) |
| 340 (F[Orn](COCH2)VYTFDAHAHS[hLeu]DAALN[hCys]IKKK; thioether 2-19) [compound 340] | B (The binding amount is 0.5 molecules of the cyclic peptide/one molecule of FGFR or more and less than 0.7 molecules of cyclic peptide/one molecule of FGFR.) | B (The residual rate of the cyclic peptide is 70% or more and less than 90%) |
| 341 ([Orn](COCH2)VYTFDAHAHSLDAALN[hCys]IKKK; thioether 1-18) [compound 341] | C (The binding amount is 0.1 molecules of cyclic peptide/one molecule of FGFR or more and less than 0.5 molecules of cyclic peptide/one molecule of FGFR.) | B (The residual rate of the cyclic peptide is 70% or more and less than 90%) |
| 342 (F[Orn](COCH2)VYTFDAHAHSLDAALN[hCys]KKK; thioether 2-19) [compound 342] | C (The binding amount is 0.1 molecules of cyclic peptide/one molecule of FGFR or more and less than 0.5 molecules of cyclic peptide/one molecule of FGFR.) | B (The residual rate of the cyclic peptide is 70% or more and less than 90%) |
